Substrate: CC(=O)O
Experiment: purified protein
Conditions: 10 mM ATP, 0.47 mM HSCoA, 10 mM MgCl2, 120 mM hydroxylamine, 10 mM reduced glutathione, Tris/HCl pH 7.5, 37 °C, apparent Km

B1: K. stuttgartiensis ACS (kustc1128), AMP-forming acetyl-CoA synthetase (Candidatus Kuenenia stuttgartensis) (protein)
chain: MNKTEIINKHPEAFNLICYEDQHKNFSWETVKKELGVGGNKVNIAYEAIDKHATTWRKNKVALYWEGSDGTHLKYTFQELKILSDKCANMLQSLGVGKGDRVFLFLPRLPELFINMIAIAKLGAISGPMFSAFGPDAVRDRLQNSEAKVLITTPELKERVDAVLWELPKLERIVLVSVKEDYELEEGNVCYKTLMKDAPERFEMEWMDMEDPLYLLYTSGTTGKPKGITHVHNDMISYYITTKWSLDLRDDDIYWCTADPGWVTGTVYGMWGPWLNGVSMYIYDGRFDVNKWYEAIQSYKITVWYTAPTALRMLMKSGDYLVAQYDLESLRYICSVGEPLNPEVIKWGMNVYNLPIHDTWWQTETGSIMIANYPCIPIKPGSMGKPFPGIKAAIIDSEGNELPDGHHGILALKPGWPSMLRKVWGDEGRFNEYFNITGWYTTGDTAYKDEEGYFWFVGRADDVINTSGHRVGPFEVESALLEHRAVAEAGVIGKPDPERGEIIKAFIALKEGFKPSSELGEEIKKFIKHHLAAHAYPREIEFCENLPKTRSGKIMRRLLKAKDLGLPTGDISTLED
Km: 200 µM
